Here are results for 19 sequences from the DeepSol protein solubility set.

The nature of this series: soluble on expression in E. coli; label from the status in PepcDB or PDB records.
As to “MGSDKIHHHHHHMAFNIDGSGNKSGVRSNMLSENNILKYGSNFSKANASSLNNKINSLNYTVEYINNELMGIFFRQGLKFGIFKAVEDFRPTISELITILGYPNEEFVEKYIKTAVSLNLLNLNEEERLELNSDFIYSSIHPEYDKIISDHVSRYDFMSGLVQYAFIGYDHPEILLNFKKDADIWDMMLNTKYMKTCREVISEYLDIKNGDTILEVGCGSRSPLYFASKVAPNGEYVGVDISKKLIRVAQGRLKRSGIECAKLKALDFSETIAKNKHDYVLCIHTLSYADSLKLFLKKMMGSLRKGGKLVIMEEFFTENINTNAELFEFYNHLNKYFKNYVSKTEILKELELIGIDYKYELLGDNCIVVERI”, the “soluble on expression in E. coli” value was “not soluble”. On to “MAHHHHHHMPAKSAKSKTQTLRDERKLGVEKLVELVFIGRPRTLSFSHRSLGSLRHPYSSLICETSAACASTQDKIMYLLEVFLEAKAEKKAWMRVERIFDSMLGDALMEKMKLGLLLSSELLQRFEVLWIRLGGVNGGFIFEDAYKQFHQHLYFTLFGIEQMTLLPATMQFILEDYQYDSHDKSGIDFGSFAHSMLELADNWAGSREVTDYVAFMDKIIECYPASAVKPCKTHAPDELTLSKDAFFRGGVVVPRVEGEQIVYHRITL”, for which the “soluble on expression in E. coli” value was “not soluble”.

As to “MGEVLHIEDALNEKGVYVSTTSGVSMYPMLRNRRDTIIVKPPTAPLKKYDVPLYRRGDDYVLHRIIGKDDRGYIICGDNCINKEYGITENQIIGVLVGFYRDGNEVNMEGVGYKLYSRAWVFLHPLICAFKKIKMKAGKVKRLWHSK”, the “soluble on expression in E. coli” value was “not soluble”. Take “MGSDKIHHHHHHGSSESAEYQQTNHYNTPKGFMNDIQTIFKGSDGYYHMYYLLNSNYKLANDGTEWYHVRTKDWEHFENLGVAIPKFVNGWSAVATGSIFQNSNQFFKDLPTSAIVAYFTSYTDTGQHQYVAYSLDNGSSYQPYNNGKPVMISQTKEQNARDPYIWYDSNSKRLMMYLAEGDKIGIYASSDGKNWAYQGATVLNQYTLGGKDLGLVECPNLKTFYDSATNTTKHVLFFGANGYQYGSTTGTYYMIGHLDTQGNFVPEQNAERLDQGSDYYGANFYQESDCVVKSIAWMGNWDYLQGQILDDQGQESKHLGSVSSARDITMVKRDDKYVLESYLKNNNSRTNTVSYQSNADTAKLADDGYHKTLLSVSRWHSQELSLKFQANAATLNGHIRLIFKQADAQVSLDYNTDNGYYEVKRTSSKIIGSQKVNYERSYVVDSHWNGQKELNIYLVADKSSLEFALPNGQTYSMVKLSTASDMDIVIETSGSNRLQADLANLET”: the “soluble on expression in E. coli” value is “not soluble”. With “MGSDKIHHHHHHMHLELRHLRTIRAIHQAGGLARAADVLHMTQSALSHQVKGLEDQAGIELFVRRSKPLKLSAAGIRLLRLAERILPEIDALEDEFRALRSGRTGRLHIAIECHACFEWLFPVLELFRHAWPEIDVDIRAGLAFEALPALMREEVDLVISSDPVTVEGMVFNPLFDYHPTFVAAASNPLAAREFISAEDFRDQMLITYPVSRDRLDVFTEVLTPAKVEPRGTRQVELTAVILMLVASNRGVSVLPDWVLRDVRSHADYVTRPLGPKTVTKRLYAATRTEDATKPFMAHFLRLGRSEPVKLQRA”, the “soluble on expression in E. coli” value is reported as “not soluble”. As to “MVSATYSVVYETGKKLNSGFDNWGWDSKMSFKDNSLVLTADPDEYGAISLKNLNSNYYGKGGCIYLQVKTETEGLVKVQGVRGYDETEAFNVGSFRSSSDFTEYKFEVDDEYQFDRIIVQDGPASNIPIYMRYIIYSTGSCDDHILEHHHHHH”, the “soluble on expression in E. coli” value was “soluble”. Consider “MGKEVMGKKENEMAQEKERPAGSQSLFRGLMLIEILSNYPNGCPLAHLSELAGLNKSTVHRLLQGLQSCGYVTTAPAAGSYRLTTKFIAVGQKALSSLNIIHIAAPHLEALNIATGETINFSSREDDHAILIYKLEPTTGMLRTRAYIGQHMPLYCSAMGKIYMAFGHPDYVKSYWESHQHEIQPLTRNTITELPAMFDELAHIRESGAAMDREENELGVSCIAVPVFDIHGRVPYAVSISLSTSRLKQVGEKNLLKPLRETAQAISNELGFTVRDDLGAIT”, for which the “soluble on expression in E. coli” value is listed as “soluble”. Next, “MAHHHHHHMATTSSPAASETAVRTVWFDAIDATAAMISTDPLQPAAEYTADSYLPPLSLAGDQADFFAQLRELDRGFIEAAPSLFLPQMTLEEACHAKPSFYQTFLGEREITETTFQPLLLKQRDEAEQEADGSAMNGRHGARRRRQEAPVLPRGTAPLYGGFLGQEAMSPSTAVQRKPDFMPIILVPSAATAPLQLMNIKQFLEHGAYVDPATLYVDRETGVVNIRDSKPRSVIVKPGSFHDPHKYHVAFRQFRVVDDQDEVDDWSHVCGCIVEGKLWQLKGWYPHEQPQSRDPSRLFSRIRAFLAYFEEDKVPPQCREWNVQSLALTRNLLKDQVHIALASKFWEQLYTFLDEHPMFSRYTIPLTDERL”: “soluble”; “MGSDKIHHHHHHMYLDVIEPDHPDYLTALLVKADLYDTEGLTEVAREKLLEASQISQEPLVIFGLAEIEMNLSDFQAAIQHYAQLDNRAILEETGVSTYERIGRAYASLGKFETAIEFLEKAVEIEFDETTVFEVATLLYDQEEYQRANLYFKQLDSMNPDFAGYEYNYALSLHAEHQTKQALRMLQQGLSKNEFDSQLLLLASQLSYELHDKKAAENYLLKVLETAEDDEEALMRLSNLYLEENRFEDVINLDRADIDSVLTKWNIAKAYQKLEADTKALEIYDTLIVDLADNPDFLKDYIYILRKFGYDEKVKTFADKYLQLVPDDNDIADLREQLQ”: “not soluble”. In the case of “MNMFNRKAKQEVTKKPEASNGSKNSKSTFVNSKSPNQKRREVKKSDSDTESSHKNTRRTKPVPVPAASSNSKGSNEKHKRKSVQQVVKKVVNHIPFSPSKQPKSTSTPPVSEGNRKRLAMADVSINQLESEMDSFVKKIEPNERRATQYIHSNSLSRSNEAVPPGNVKTSQQKADHHLIRTTRSLIGLDGETEAVYSKATKASPDKGKLTADSPSSRRTSKSLEENSSETTNDSISLADDEETREAYRKLFKDFAMSSQKMTLDDFKQEFSNLPGDPPSDLCTVFNHPVNNKKNRYSNIPCLDISRVQLKFKMPNKNSTDYIHANYIRSPFLKRGYILTQGPKKETRADFWRMIWQENTTAIVMLCQFLETNREKCAEYFPRNAHCCLQFDKFSVNYEDSTVNKSLVTTRLNLSYEGETRLITHWLWKEWPDWQVPESSEVMLKILRKIRARSTPPVIHCSAGVGRSGTLMAVEIALQSIHTHFTLPDIKQIVSHLRVTGRAASVQTLQQYMLIWKVLLDFGVAYKQITEELAEKFNSTYRRSLRSINGT” it was “not soluble”; in that of “LADYGRTAAVNRVEMRDTELGIVTAGVSYQYVREVFPNASVLKLGMVYPLPMDLIREFASKVTKLIVVEELDAFIEDQVKAAGISVTGKEAIPLCGELTPGRLRAAFGIPGAPQVTVENLPGRPPNMCPGCPHRGVFFTLNQLKAYVTGDIGCYTLGFMPPLNAMDTCVCMGASISSASGIVRVLSDEEKKKVVAVIGDSTFLHTGVNSLMEMAYNKAPATVVILDN”, “not soluble”. As for “MGSDKIHHHHHHMRKLAHNFYKPLAIGAPEPIRELPVRPERVVHFFPPHVEKIRARIPEVAKQVDVLCGNLEDAIPMDAKEAARNGFIEVVKATDFGDTALWVRVNALNSPWVLDDIAEIVAAVGNKLDVIMIPKVEGPWDIHFVDQYLALLEARHQIKKPILIHALLETAQGMVNLEEIAGASPRMHGFSLGPADLAASRGMKTTRVGGGHPFYGVLADPQEGQAERPFYQQDLWHYTIARMVDVAVAHGLRAFYGPFGDIKDEAACEAQFRNAFLLGCTGAWSLAPNQIPIAKRVFSPDVNEVLFAKRILEAMPDGSGVAMIDGKMQDDATWKQAKVIVDLARMIAKKDPDLAQAYGL”, the “soluble on expression in E. coli” value was “not soluble”. Regarding “MGSDKIHHHHHHTIVSCSDDKGEDGYNPNLPVRISELSPQEGGYFDKVILQGENFGNNPKKVRVFFNKKEAIVVGASGDRVLVHVPKLPGDDCKIGMLLNGNTTDTIFAEKHFAYEKNYQLIYVAGQLNSNTETFVEGSLETTTFANSMQHLACDPSGVIYMNHKNQVKVAVLFTLMNLRTTLSFWIMEHLLKTEARLALRIMMTKQRRFTSVRTMLHFFGKLILRIHGLL”, the “soluble on expression in E. coli” value is recorded as “not soluble”. In the case of “MAHHHHHHMCNGKFAFLFSDFGNHVIEESYYKVNEGQRKGETGANKAAMQIQYCKLSHFLKVPFENFDKKTNKIIYPMFALILFEQNKQLNKNDKSIDEQEFHTFCDQFSLSKWKESLVEISKTYRVGFSPTCSIMGGVTSQEIRKFVSKQHESIPNFCVFDMNQNVVCTSMIS” it was “not soluble”; in that of “MSAGVQLPLDLPWRPALGREHFLVAACNASAVALVEAWPHWPAPAACIHGPTGAGKTHLAQVFATRAAAVVLDPAVILGTDPLTLFEGGRAAVIEDADRAGLPEATLFHLLNAARQRGGSLLLTALSPPARWGVHLADLRSRLAALPAEGLCEPDDELMAAVLLKLFSDRGLDVAPGAIGYLLPRMERSFAAARDLVVHADALALREGRAVTVPLLRQLLATPDRADRLEHHHHHH”, “not soluble”. “MSLTMVQVTLEVNGRQVAHEAPPRMHLGDFLRDQARLTGTHLGCEHGVCGACTVLVDGQPVRSCITYAVACEGRQVTTIEGYDGDPVMARLRAAFTKYHALQCGYCTPGMLTTSRDIVLRLPDADEARVRVELSGNLCRCTGYMGIVGAVMSVLRDLREQPDAAVQALRAAAADGRLPAPRGEQPIAFQPFTPSAPSGKGNQIVDAFTVPFPAAEVWAFMVDLPAVAACLPGAVIEETDGQRVKGKIAIKFGPMAAAFNGAARLERDEAAMRAVFRGAGQDSLSQSRATGDIAYQVEAVSENETRVKVDLQYALQGPLAQFSRSGLVQDFVRRMIADFGKNVTARLREGHHHHHH”: the “soluble on expression in E. coli” value is “soluble”. Take “MKEHVKDKKTAIMGAALKLFTERGFHGTSTAQISKNAGVATGTLFNYFPTKEDLINSLYFEVKGNLGHSMGVGLEAETTFQDKLKRIWSNLVNWGVNNQEEFLFVGQFCSSPYITKFTRDEVMKEYVFLHNFVDEGIKTGEVRDFPAELVIAMFYQGSREVVNLILDSDSSLDKNKIIADGFQILWRGLAKV”: the “soluble on expression in E. coli” value was “not soluble”. With “MIFMHPKTLEILKMFEEINKIPRRSKNEEKLALWLMEWAKNHNFEAKTDALNNVLIKVPPTPGYENSPAIVLQGHMDMVCEKCRDSGHDFSKDPIICIYEGDWLRGDGTSIGADNGIALAIGLVLAESGIKGEIEHPPLELLFTVDEETGLTGASGLEEDFFEGRILLNLDSEDEGIFILGCAGGQNSRIFLPLQWESFDYGKGSGFGLFRISAEGLEGGHSGVEIHRQRANGIQLLARMLSALKEKVGKENLRLVFFSGGSVHNAIPNYAEAFIVLSRNNEKQAEDFVSGLQKSFRGEYAVSDPEITLQLKEVENGIIFEASGGKITRKEVPSDRVFSVETEEKLYGVLLGMPHGVHRVSDTIPGLVETSNNLATVRTGEKEVRIVSSQRSSVMSRLAEVTEKVETVAKLAGARVEHECGYPAWEPDLQSGLLMKCRHAYSGTFGKEPEIKVVHAGLECGVIGSKCECIEMISFGPTIKDPHSPAERVYIPSIEKVWVFLENLMKSYRLEHHHHHH”, the “soluble on expression in E. coli” value is reported as “soluble”. On to “MGSDKIHHHHHHMSILEVKNLSHGFGDRAIFEDVSFRLLKGEHIGLVGANGEGKSTFMSIVTGKMLPDEGKVEWSKYVTAGYLDQHSVLAERQSVRDVLRTAFDELFKAEARINDLYMKMAEDGADVDALMEEVGELQDRLESRDFYTLDAKIDEVARALGVMDFGMDTDVTSLSGGQRTKVLLAKLLLEKPDILLLDEPTNYLDAEHIDWLKRYLQNYENAFVLISHDIPFLNDVINIVYHVENQQLTRYSGDYYQFQEVYAMKKSQLEAAYERQQKEIADLKDFVARNKARVATRNMAMSRQKKLDKMDIIELQSEKPKPSFDFKPARTPGRFIFQAKNLQIGYDRPLTKPLNLTFERNQKVAIIGANGIGKTTLLKSLLGIISPIAGEVERGDYLELGYFEQEVEGGNRQTPLEAVWNAFPALNQAEVRAALARCGLTTKHIESQIQVLSGGEQAKVRFCLLMNRENNVLVLDEPTNHLDVDAKDELKRALKEYRGSILMVCHEPDFYEGWIDQIWDFNNLT”, for which the “soluble on expression in E. coli” value is “not soluble”.
